A short description of the series: self-splicing fitness, log relative to wild type (ln ratio); higher = more splicing; Tetrahymena group I intron in knt gene, E. coli kanamycin selection, DiMSum; sequences stand for … in CUCUCU…GGAGGGAAAAGUUAUCAGGCAUGCACCUGGUAGCUAGUCUUUAAACCAAUAGAUUGCAUCGGUUUAAAAGGCAAGACCGUCAAAUUGCGGGAAAGGGGUCAACAGCCGUUCAGUACCAAGUCUCAGGGGAAACUUUGAGAUGGCCUUGCAAAGGGUAUGGUAAUAAGCUGACGGACAUGGUCCUAACCACGCAGCCAAGUCCUAAGUCAACAGAUCUUCUGUUGAUAUGGAUGCAGUUCACAGACUAAAUGUCGGUCGGGGAAGAUGUAUUCUUCUCAUAAGAUAUAGUCGGACCUCUCCUUAAUGGGAGCUAGCGGAUGAAGUGAUGCAACACUGGAGCCGCUGGGAACUAAUUUGUAUGCGAAAGUAUAUUGAUUAGUUUUGGAGUACUCGUGGUCG
In outline:
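Fitness was computed with DiMSum as the error-weighted combination of replicate fold changes, kanamycin versus none, each normalised to wild type. The library randomised all eight intron nucleotides of the P1ex region, with the intron placed in the knt kanamycin-resistance gene on pET-22b(+) in E. coli BL21(DE3). Six replicate transformations were grown overnight at 37°C or 30°C on LB agar with or without 25 μg/mL kanamycin, plus 100 μg/mL carbenicillin, 50 μM IPTG and 0.2% rhamnose. Pooled colonies were amplicon-sequenced on an Illumina HiSeq 2500.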

± gives the uncertainty stated by the source.

For CCCAAGCAAUAUUACGUUCA, the “self-splicing fitness (ln)” value (30 °C) was -3.21 ± 0.23 and the “self-splicing fitness (ln)” value (37 °C) is -2.39 ± 0.29. On to CCCAAGCAAUAUUACGUUGA, for which the “self-splicing fitness (ln)” value (30 °C) is -3.74 ± 0.14 and the “self-splicing fitness (ln)” value (37 °C) was -3.04 ± 0.14. For CCCAAGCAAUAUUACGUUUC the same measures were -3.63 ± 0.16 and -2.76 ± 0.15. For CCCCAGCAAUAUUACGAAAU the same measures were -3.82 ± 0.17 and -2.25 ± 0.18.

Take CCCCAGCAAUAUUACGAACG: the “self-splicing fitness (ln)” value (30 °C) is -3.44 ± 0.2 and the “self-splicing fitness (ln)” value (37 °C) was -2.19 ± 0.18. As for CCCCAGCAAUAUUACGAUGG, the “self-splicing fitness (ln)” value is, setting by setting: (30 °C) -3.49 ± 0.15; (37 °C) -2.82 ± 0.21. CCCCAGCAAUAUUACGCACA: the “self-splicing fitness (ln)” value (30 °C) is -3.56 ± 0.21 and the “self-splicing fitness (ln)” value (37 °C) is -3.66 ± 0.29.

As to CCCCAGCAAUAUUACGCAUA, the “self-splicing fitness (ln)” value is -2.67 ± 0.14 (30 °C) and -2.4 ± 0.2 (37 °C).

As to CCCCAGCAAUAUUACGCCAG, the “self-splicing fitness (ln)” value by setting is: (30 °C) -3.57 ± 0.2; (37 °C) -2.44 ± 0.22. For CCCCAGCAAUAUUACGCGGA the same measures were -3.34 ± 0.15 and -2.07 ± 0.12.

For CCCCAGCAAUAUUACGCGUA, the “self-splicing fitness (ln)” value by setting is: (30 °C) -3.87 ± 0.25; (37 °C) -2.46 ± 0.18. On the same counts, the results for CCCCAGCAAUAUUACGCUCG are -3.14 ± 0.17 and -2.1 ± 0.19. For CCCCAGCAAUAUUACGGAAG the same measures were -2.27 ± 0.088 and -1.73 ± 0.11.

On to CCCCAGCAAUAUUACGGACA, for which the “self-splicing fitness (ln)” value by setting is: (30 °C) -3.52 ± 0.14; (37 °C) -2.53 ± 0.14. For CCCCAGCAAUAUUACGGAUC, the “self-splicing fitness (ln)” value (30 °C) is -2.89 ± 0.12 and the “self-splicing fitness (ln)” value (37 °C) was -2.96 ± 0.21. For the sequence CCCCAGCAAUAUUACGGCAG, the “self-splicing fitness (ln)” value reads like this: (30 °C) -3.92 ± 0.16; (37 °C) -2.22 ± 0.15.

Take CCCCAGCAAUAUUACGGCGA: the “self-splicing fitness (ln)” value (30 °C) is -2.05 ± 0.14 and the “self-splicing fitness (ln)” value (37 °C) is -1.64 ± 0.14.

For the sequence CCCCAGCAAUAUUACGGCGG, the “self-splicing fitness (ln)” value reads like this: (30 °C) -3.53 ± 0.17; (37 °C) -2.99 ± 0.24. CCCCAGCAAUAUUACGUACA: the “self-splicing fitness (ln)” value (30 °C) was -3.37 ± 0.21 and the “self-splicing fitness (ln)” value (37 °C) is -3.5 ± 0.35. On the same counts, the results for CCCCAGCAAUAUUACGUCAU are -3.36 ± 0.1 and -3.02 ± 0.15.

Consider CCCCAGCAAUAUUACGUCCG, for which the “self-splicing fitness (ln)” value (37 °C) is -2.09 ± 0.28.

As to CCCCAGCAAUAUUACGUGCC, the “self-splicing fitness (ln)” value was -4.13 ± 0.27 (30 °C) and -2.57 ± 0.24 (37 °C). With CCCGAGCAAUAUUACGAACU, the “self-splicing fitness (ln)” value (37 °C) is -1.58 ± 0.39. Take CCCGAGCAAUAUUACGAAGC: the “self-splicing fitness (ln)” value (30 °C) was -3.12 ± 0.26.

As to CCCGAGCAAUAUUACGAAUA, the “self-splicing fitness (ln)” value reads like this: (30 °C) -3.44 ± 0.2; (37 °C) -2.89 ± 0.21.

For the sequence CCCGAGCAAUAUUACGACUA, where the note is “30 °C”, the “self-splicing fitness (ln)” value is -2.29 ± 0.36. CCCGAGCAAUAUUACGAGCC: the “self-splicing fitness (ln)” value is, setting by setting: (30 °C) -2.46 ± 0.2; (37 °C) -2.12 ± 0.28.

Turning to CCCGAGCAAUAUUACGCAAC, for the setting “37 °C”, the “self-splicing fitness (ln)” value was -2.23 ± 0.34. On to CCCGAGCAAUAUUACGCAUC, for which the “self-splicing fitness (ln)” value runs as follows: (30 °C) -2 ± 0.15; (37 °C) -1.45 ± 0.2. On the same counts, the results for CCCGAGCAAUAUUACGCUUA are -3.88 ± 0.3 and -2.82 ± 0.33. CCCGAGCAAUAUUACGCUUC: the “self-splicing fitness (ln)” value reads like this: (30 °C) -3.7 ± 0.47; (37 °C) -2.32 ± 0.29. Turning to CCCGAGCAAUAUUACGGAGG, the “self-splicing fitness (ln)” value reads like this: (30 °C) -3.84 ± 0.21; (37 °C) -2.57 ± 0.19. Turning to CCCGAGCAAUAUUACGGCAC, the “self-splicing fitness (ln)” value (37 °C) was -2.32 ± 0.28.

As to CCCGAGCAAUAUUACGGUCG, the “self-splicing fitness (ln)” value by setting is: (30 °C) -3.56 ± 0.24; (37 °C) -2.58 ± 0.2. For CCCGAGCAAUAUUACGGUUC the same measures were -3.62 ± 0.2 and -1.98 ± 0.2. On the same counts, the results for CCCGAGCAAUAUUACGUAUC are -1.94 ± 0.17 and -3.67 ± 0.36.

Take CCCGAGCAAUAUUACGUCUC: the “self-splicing fitness (ln)” value (37 °C) is -2.22 ± 0.29. Turning to CCCGAGCAAUAUUACGUGAG, the “self-splicing fitness (ln)” value is -3.58 ± 0.19 (30 °C) and -2.77 ± 0.24 (37 °C). For CCCGAGCAAUAUUACGUGUC the same measures were -5.12 ± 0.38 and -2.8 ± 0.19. For CCCGAGCAAUAUUACGUUGG the same measures were -4.15 ± 0.18 and -2.09 ± 0.14.

(Values after the supplement of paper PMC7877785.)
